Assay results reported in patent publication US20120322725A1.

Experiments:
Assay in all cases: cell-based or functional assay
GIP receptor = target: T1, GIP receptor (UniProt P48546)
T1 sequence (looked up): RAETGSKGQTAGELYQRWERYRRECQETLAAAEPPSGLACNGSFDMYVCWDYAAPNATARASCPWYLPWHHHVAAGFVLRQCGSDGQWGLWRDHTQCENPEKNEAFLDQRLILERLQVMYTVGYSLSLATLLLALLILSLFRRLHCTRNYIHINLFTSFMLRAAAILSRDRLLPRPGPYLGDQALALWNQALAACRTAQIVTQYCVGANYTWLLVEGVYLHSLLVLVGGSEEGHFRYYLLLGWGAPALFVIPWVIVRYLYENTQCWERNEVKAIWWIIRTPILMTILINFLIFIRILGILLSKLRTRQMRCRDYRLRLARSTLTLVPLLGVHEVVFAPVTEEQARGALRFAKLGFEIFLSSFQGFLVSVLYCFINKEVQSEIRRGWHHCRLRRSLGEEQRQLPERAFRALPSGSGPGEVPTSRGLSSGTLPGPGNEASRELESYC

GLP-1 receptor = GLP-1 receptor (UniProt P43220)
glucagon receptor = glucagon receptor (UniProt P47871)
Sequence of glucagon receptor (P47871 26-477 limits assumed): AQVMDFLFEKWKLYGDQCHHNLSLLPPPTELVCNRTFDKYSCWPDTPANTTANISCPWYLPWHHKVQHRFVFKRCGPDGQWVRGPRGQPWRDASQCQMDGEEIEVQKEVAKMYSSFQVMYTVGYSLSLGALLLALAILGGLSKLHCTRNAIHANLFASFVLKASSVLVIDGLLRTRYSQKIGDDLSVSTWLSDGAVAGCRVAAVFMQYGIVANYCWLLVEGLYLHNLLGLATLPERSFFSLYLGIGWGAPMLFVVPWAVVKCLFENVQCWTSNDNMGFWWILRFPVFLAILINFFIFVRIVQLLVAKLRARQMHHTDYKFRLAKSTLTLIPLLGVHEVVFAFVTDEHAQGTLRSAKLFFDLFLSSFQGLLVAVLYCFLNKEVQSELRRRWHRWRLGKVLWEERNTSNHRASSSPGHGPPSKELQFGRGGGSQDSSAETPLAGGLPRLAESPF

Sequence of GLP-1 receptor (P43220 24-463 limits assumed): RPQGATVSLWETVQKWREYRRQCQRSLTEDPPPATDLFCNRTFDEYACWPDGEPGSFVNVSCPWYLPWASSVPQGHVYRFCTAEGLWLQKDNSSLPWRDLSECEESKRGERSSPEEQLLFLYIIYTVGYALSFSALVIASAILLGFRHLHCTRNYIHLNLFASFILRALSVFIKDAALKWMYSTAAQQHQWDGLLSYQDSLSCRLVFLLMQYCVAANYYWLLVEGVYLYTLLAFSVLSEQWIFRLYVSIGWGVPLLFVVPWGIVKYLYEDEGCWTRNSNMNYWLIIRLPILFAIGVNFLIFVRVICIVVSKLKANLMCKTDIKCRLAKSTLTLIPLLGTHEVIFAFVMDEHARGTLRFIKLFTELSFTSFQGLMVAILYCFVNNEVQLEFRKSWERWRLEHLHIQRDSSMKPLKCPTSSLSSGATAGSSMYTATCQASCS

Row | IC50(nM) (cAMP, inhibit 0.2 mM Glucagon) (glucagon receptor) | Substance | GIP (EC50) (GIP receptor) [nM] | GLP-1 (EC50) (GLP-1 receptor) [nM] | Glucagon IC50 (glucagon receptor) [nM]
1 |  | A1, Aib2, E3 GIP(1-40) (peptide) | 3.89 |  | 
2 |  | HAibEGT-PLA6, (E16K20) G(1-29) (peptide) |  | 3.6 | 12
3 |  | HAibEGT-PLA6, (E16K20), C24 G(1-29)/A1, Aib2, E3, K40 GIP(1-40) | 1.58 | 11.7 | 
4 |  | HAibEGT-PLA6, (E16K20), C24, cex, K40(rErEC16) G(1-40)/A1, Aib2, E3, K40 GIP(1-40) | 0.379 | 0.363 | 
5 |  | HAibEGT-PLA6, (E16K20), cex, K40(rErEC16) G(1-40) (peptide) |  | 0.76 | 150
6 |  | HAibEGT-PLA6, K10(rErEC16), (E16K20) G(1-29) (peptide) |  | 0.19 | 14.3
7 |  | HAibEGT-PLA6, K10(rErEC16), (E16K20), C24 G(1-29)/A1, Aib2, E3, K40 GIP(1-40) | 0.347 | 0.813 | 
8 |  | PLA6, (E16K20), C24 G(6-29)/A1, Aib2, E3, K40 GIP(1-40) | 1.29 | 367 | 40.1
9 | 14800 | [d-Cys5(20kDaPEG), E9]Glucagon(aa5-29)-NH2 (peptide) |  |  | 
